# From the DeepSol protein solubility set
# Assay: soluble on expression in E. coli; label from the status in PepcDB or PDB records
row,Sequence,soluble on expression in E. coli
1,MGSDKIHHHHHHMAEKQYDFTHVPKRQGNSIKWGVLKEKELPMWIAEMDFKIAPEIMASMEEKLKVAAFGYESVPAEYYKAVADWEEIEHRARPKEDWCVFASGVVPAISAMVRQFTSPGDQILVQEPVYNMFYSVIEGNGRRVISSDLIYENSKYSVNWADLEEKLATPSVRMMVFCNPHNPIGYAWSEEEVKRIAELCAKHQVLLISDEIHGDLVLTDEDITPAFTVDWDAKNWVVSLISPSKTFNLAALHAACAIIPNPDLRARAEESFFLAGIGEPNLLAIPAAIAAYEEGHDWLRELKQVLRDNFAYAREFLAKEVPEVKVLDSNASYLAWVDISALGMNAEDFCKYLREKTGLIISAGNGYRGNGHEFVRINLACPKELVIDGMQRLKQGVLNLNN,not soluble
2,MANVYDLANELERAVRALPEYQAVLTAKSAIESDADAQVLWQDFLATQSKVQEMMQSGQMPSQEEQDEMSKLGEKIESNDLLKVYFDQQQRLSVYMSDIEKIVFAPMQDLM,not soluble
3,KSLTLVLHRDSGSLGFNIIGGRPSVDNHDGSSSEGIFVSKIVDSGPAAKEGGLQIHDRIIEVNGRDLSRATHDQAVEAFKTAKEPIVVQVLRRT,soluble
4,GPLGSGDVQVTEDAVRRYLTRKPMTTKDLLKKFQTKKTGLSSEQTVNVLAQILKRLNPERKMINDKMHFSLKE,soluble
5,MSLTKTLIVNAHPDFRNAAHYSVQLEQAFLQLFQTRFPNDTVDVLNLYDTVIPQATVPELLGIWEKQAQHVNLSIEEQRLFAINQQLLQQFKAHHRIVIAMPLHNFNVPARLKDYIDNILVARETFRYTENGSVGLMTDNYRVMLLQASGSIYTRNDRYTPMEFSRLYLDKMFTEIMGFDRFEIVRAQGLQTNGVAVSQALKQAKMDLKAAFERFYDEGHHHHHH,soluble
6,MSQDPFALLKAEVDLLGRLLGEAIRTLSGERFFALVEEVRALAKARRQGDEAAGEALLARVEGLSTEEAEALVRAFTHYFHLVNLAEERHRVRVNRLRAQAETLESPRPEGFLALAKALKERGLSLEEAEAHLNRLELLLTFTAHPTETRRRTLRHHLEALQRELEAGDRERLAARVALLYGTEEVRKARPTVEDEIKGGLYYLPTTLWEAVPRVVAGLEAALERVYGRRPRLKSPVRFRSWIGGDRDGNPFVTPEVTAFAGRYAREVARRRFLEALEDLVRDLSLAEARVPVPREVRERGEGVERFMGEPYRRYFAALYRALEREEATTEGLLAALKAAERGLREVGLGRVAEAFLDPLEARLSAFGLELAPLDLREESGRLLEAAAELLRVGGVHPDFLALPQEERERLLTEELKTARPLLPVGEAPEGEALRVALGALKAWRDKGAHVVSMTHHPEDLLAVFLLAREVGLYRPGRPLPFDVVPLFETLEDLRRAPGVLRRLLENPVFLAHARGRGGVEVMIGYSDSNKDAGFLMANLALYEAQEALSRVGEEVGLPVYFFHGRGTSTARGGGPAGRAIASLPPRSVGRRIRLTEQGEALADRYSHPDLAVRHLEQMLYHFALAALGPGQEPEARWREALAQAAEESTRRYRALLQEEGFFDFFEAFTPIREIGELPIASRPVYRRGRVRDIRDLRAIPWVMAWTQVRVLLPGWYGLSALEELPLDLLREMYRGWPFFASTLEAAAMALAKADMGVARLYLRLVPEPLRFFYRRLAEEHARTVALLEAVFQAPLLHNQRTLERQIRLRNPYVDPINIVQVELLRRYRAPGGKEDEALRRALLLSILGVAAGLRNAG,soluble
7,MSNSKDLMSEFEKLRQETSKIQYSLIQKLPSEPSSFVENQLLLETQTLCGQLLKNQEEQNILNEKLRNEQKIIKLKHNTEMKSMRDKLETLTTAQAAQKLDFERHFEMMRQSHSAKIVKMERDLRNMKYDLHSLRSDMDSRKNCENRAAPKPEFQIFVKVLGVSYAFKIHREDTVFDIKNDIEHRHDIPQHSYWLSFSGKRLEDHCSIGDYNIQKSSTITMYFRSG,not soluble
8,MKIACVVLTYNRLSLLKRCIDSIRNQTYQEFDIYVIDNASTDGTAHWLSLQNDLTVISIHENKGPANGFYTCLQVPYDDGYDWIWMMDDDGVADKGQLEELLNKTVKNNLYFTNALVCNIDNPEKIAFGAKKTIDTQREELIKGNINPFNGTFIHRRVIEKNGNIMREMYMYGCETEYQLRAIKNGFQVATVTSAIHYHPSPKVSICHLIPYIKYCSIIDYPIDTLFYIRNKAYINYTYLGFKRSLFMITSYSLYYLFRLKIRKVLLFWKYYREGCKGVVGNKKQ,soluble
9,MACHELSALRIAIGELLEKEAHDLLHEREELAPVLGQRPELKRLAEAKTLPALEEALREALLHLEERAAQEPEEPYWRGLLLAVEAMEGRLKALRAEAEALYQDLDALHGRLHRLFPRRR,soluble
10,MAHHHHHHMHHGATLHESLPCPLVSPIVSIDQCPFQPHERSETRPPHGNASLTFYTARSRCRVNFTPGPNVTYSAENKYSWNPYYRLETENKSQRLKAAQEECNSASVSGPCPIALTPRQGQCMARCSNTSSSTAQSPMHTFGCETPAIVSRCELSPQFSSVKSESGRALLTASHSIEENSITESTCVPQFDNMMHGLPMYASIHPVGEVWPLNEMNNEENVVFDAIKPTRNEQLQQQLYPTPLLVSQNQPTVSPYPYVMESRTIQPTYVSYNKARVPLLRFSKMLPPPVRCEAMSILENENPQLPLLMMYNPVLRWYERIKALLNEDYSAWPGGSCAVNISNNKSVRLELEEPCPTLPNKAEQTRENMSQWLKECNEWWDRQFFEKSRNGDKRRNGTGRGKWRQYSIQYPYNNHNNNNKAHKVNRGMQFDGEVAFLRRGGLQ,not soluble
11,GSHMSSPVNEEENSQRISTLHHQTMPSDLTQDEFTQLSQSIAEFHTYQLGNGRCSSLLAQRIHAPPETVWSVVRRFDRPQIYKHFIKSCNVSEDFEMRVGCTRDVNVISGLPANTSRERLDLLDDDRRVTGFSITGGEHRLRNYKSVTTVHRFEKEEEEERIWTVVLESYVVDVPEGNSEEDTRLFADTVIRLNLQKLASITEAMNRN,soluble
12,MGSDKIHHHHHHMNNLPLLDNNWNTDLYEDKHAFVWQYGENLLKVLNPKLGESILDLGCGTGQLTEKIAQAGAEVTGIDRASSMIETARQNYPHLRFDVADARDFQVLKPLDAVFSNAVLHWIKEADAAIASIHQALKPGGRFVAEFGGKGNIQAIVTALYSALEAIAISPQALNPWYFPSIGEYATLLEQQGFDVTYATLFARPTPLTEGEAGMANWLEMFADVFLAGLSADQKIQIIRTVEEHLLPTLYQQGNWTADYRRIRIVAIKL,not soluble
13,GGSGSDIEAYFERIGYKNSRNKLDLETLTDILEHQIRAVPFENLNMHCGQAMELGLEAIFDHIVRRNRGGWCLQVNQLLYWALTTIGFQTTMLGGYFYIPPVNKYSTGMVHLLLQVTIDGRNYIVDAGSGSSSQMWQPLELISGKDQPQVPCIFCLTEERGIWYLDQIRREQYITNKEFLNSHLLPKKKHQKIYLFTLEPRTIEDFESMNTYLQTSPTSSFITTSFCSLQTPEGVYCLVGFILTYRKFNYKDNTDLVEFKTLTEEEVEEVLKNIFKISLGRNLVPKPGDGSLTI,soluble
14,MGSDKIHHHHHHMSTVESALTRRIMGIETEYGLTFVDGDSKKLRPDEIARRMFRPIVEKYSSSNIFIPNGSRLYLDVGSHPEYATAECDNLTQLINFEKAGDVIADRMAVDAEESLAKEDIAGQVYLFKNNVDSVGNSYGCHENYLVGRSMPLKALGKRLMPFLITRQLICGAGRIHHPNPLDKGESFPLGYCISQRSDHVWEGVSSATTRSRPIINTRDEPHADSHSYRRLHVIVGDANMAEPSIALKVGSTLLVLEMIEADFGLPSLELANDIASIREISRDATGSTLLSLKDGTTMTALQIQQVVFEHASKWLEQRPEPEFSGTSNTEMARVLDLWGRMLKAIESGDFSEVDTEIDWVIKKKLIDRFIQRGNLGLDDPKLAQVDLTYHDIRPGRGLFSVLQSRGMIKRWTTDEAILAAVDTAPDTTRAHLRGRILKAADTLGVPVTVDWMRHKVNRPEPQSVELGDPFSAVNSEVDQLIEYMTVHAESYRS,not soluble
15,MSLQKRVTDEDIKERLDKIGFRIAVMSGKGGVGKSTVTALLAVHYAKQGKKVGILDADFLGPSIPHLFGLEKGKVAVSDEGLEPVLTQRLGIKVMSIQFLLPKRETPVIWRGPLIAGMIREFLGRVAWGELDYLLIDLPPGTGDAPLTVMQDAKPNGAVIVSTPQELTAAVVEKAITMAEQTKTAVLGIVENMAYFECPNCGERTYLFGEGKASELARKYKIEFITEIPIDSDLLKLSDLGRVEEYEPDWFEFFPYEGGSHHHHHH,soluble
16,MPTLKVAYIPEHFSTPLFFAQQQGYYKAHDLSIEFVKVPEGSGRLINLLNSNEVDIAIGLTEAFIADIAKGNENIHVLDTYVKSPLLWAVSTGSNRDDVTDAKQLKRIGVSRIGSGSYVMSFVLAHQLGVPSFDQFQVLSNFKNLRDSVNLKDGVEGSDAFMWEYFTSKKYYDNHEIKQIDQIYTPWSSWVVATSSDSLQAKSDVIKNFIDAVNQGIQYYNEHVDEAIEYISSNLDYSAEDAKEWTKTVEFNSRIGKTPLDWDTIVVKTKDTLKLAGVLAESDDVILKRLNSNVKKTNL,soluble
17,MAHHHHHHMSFCDFVVVTNNSVEIFKISFDNLIITPIKKHFIKSKHCWYDEKSSYICLLSANKSNVILPYLLSNNNVIKLSKIELNILKNDNINKNDIEIITLYNETYCIHKDFKNGRISFRCLSSTIYFDYVLDLFYNGVIETFSLDNLFGVFNHTNQYVYLFDIKYNKKKTTIHSFDDNNNHTINISYLTTPKQFKTQINFNHMAFEPYNLLIDNHYGNVYKVKVDYDVLMLQICQHFSNLVRT,soluble
18,MSDPAGNRPKTEKELKKEAEKAAKLAKFEEKQKKLAEKKAAASDKPVKEAKAKKEQTVEAAEPVDQTPTGQRKKIDGEIPAAYFPGYVESGWYSWWEKEGFFKPEYIDKLNPGSNPADSFTVCIPPPNVTGNLHVGHALATTVEDTITRFNRMHGKRTLFNPGCDHAGIATQVVVEKRLKRERGLTRHDLGRDRFNQEVWHWKNEKGDVIYDQFRKLGASVDWDRAVFTMDPKMCRAVTEAFIRMHESGTIYRSNRLVNWSCALRSAISDIEVDKKELTGSTLIAVPGYDKKIEFGVLNSFAYKIQGSDEEIVVSTTRIETMLGDSGVAVHPDDQRYKHLVGKQCIHPFIPTRNLPIFADSFVEMEFGTGAVKITPAHDHNDYEVGIRQNLPFHNCITDDGLISQGCGEFSGMKRFDARTAVIEALKEKGLYRGKEDNPMVVPTCSRSKDVIEPILKPQWYVKCAHMAEKAVAAVANGDLQIIPEFHKATWNRWLESSRDWCISRQLWWGHRIPAYYISFADGREQPLPEENYWVSARTEQEALAKAAQKFQVPEAEILLKWDEDVLDTWFSSGMWPFAVFGWPDATKDMDLFFPGAVLETGHDILFFWVARMVFMAQELTGKLPFKEILLHAMIRDAHGRKMSKSLGNVIDPLDVIRGISLNDLQAQLLGGNLDEKEIAVAKEGQARDYPDGIPECGVDALRFALLSYTSQGRDINLDVLRVHGYRKFCNKLWQVVRFALARISDKPEQKPTFEINLKSATPTDLWILSRLAKAVKETNEALKAYNFTQATTVTYNFWLYDFCDVYVETIKPVLYGDNTTLRQVAISVLHKCIDTGLRLISPLMPFISEELWQRMPRLDDSDYTSPSIIVAQYPLTQKYEKYQNEKLEAAFEFAQELIGKVRSLRADYDLKKTKITMQILSETPEDESMLNDISAVITTLTFSEKVSILNKCESDKIEKGSAHIACGGRCQVYINLTGIIDVPKEIEKLGAKLQKNQISVKKIGDIQSSADYEQKVPVDIRALDQEKKATLEKEIENITAAIAQLKALN,not soluble
19,VRQLLGLEGPIKRVECFDISHTMGEATVASCVVFDAVGPVRSQYRRYNITGITPGDDYAAMRQAIERRFRRAVEEDKQGERPDVLFIDGGAGQLAQAKMALNAVGVESVLLVGVSKGEERRAGHETLIMLDGQELHPGAASPALQFIQQVRDEAHRFAI,not soluble
20,MDKHQQAIITVSAYITNDTGEVLLVKSYDRSDTWEMPGGQVEPGEPLDRAVHREVYEETGVDIRLIGVSGVYYNETKNIINIVFKATYVKGNVSPQPEEIQKAKFVLIDESNIDEYVTWPHLKSRVLDAMKRECSVPYETWVMNPSRLSARVGR,not soluble
